Reference: the supplement of paper PMC9170038

Test system: MS2 coat protein
Assay: apparent KD of MS2 coat protein; designed switch direction (-1 OFF switch, 1 ON switch): -1; higher = weaker reporter binding
Summary of the method: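 Designed RNA switches with common flanks were transcribed on Illumina chips by stalled E. coli RNA polymerase and titrated with SNAP-549-labelled MS2 coat protein, from 0.7 or 1.5 nM doubling to 3 µM, in Tris-HCl pH 7.5 buffer with KCl, MgCl2, BSA, DTT, tRNA and Tween-20. Steps lasted 0.8–1.5 h (lowest) to 10–20 min (highest). Titrations ran without input, with 200 uM small-molecule ligand, or with an oligonucleotide input. Normalised cluster fluorescence was curve-fitted, and apparent KD is the per-design median over clusters.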

[1] = input ligand: microRNA oligo, concentration not stated
[2] = Eterna round: R95, input ligand: microRNA oligo, concentration not stated
[3] = Eterna round: R95, input ligand: FMN 200 uM
[4] = Eterna round: R95, input ligand: none

Row | Sequence | apparent KD of MS2 coat protein (input ligand: FMN 200 uM) | apparent KD of MS2 coat protein (input ligand: none) | further results
1 | UAGCAUUGCCUUUGGUAGUGCAUUACAUGAGGAUCACCCAUGUAGGAUAUGGUAGGCUUUGCUUACCAGAAGGACAUGAUAAUU [JL ENG3 1.05] (Eterna round: R96, puzzle: Exclusion NG 3) | 135 nM | 48.7 nM | apparent KD of MS2 coat protein [1]: 38.9 nM
2 | CAAUUCCGAGGAUAUACAUGAGGAUCACCCAUGUCGGGCCUCAGCGUUUAGCGCCUCAGUAGAAGGCGGGUUUC [JL Riri mod 3] (puzzle: Exclusion 3) |  |  | apparent KD of MS2 coat protein [2]: 24.4 nM
3 | UGACCUUUUGUCAGGAUAUAUAUACGUGUUGGUAGGUAGAAGGGACAUGAGGAUCACCCAUGUGGUUUGAGCUA [Eternabot (L1) Solution 74] (Eterna round: R97, puzzle: Brourd's mod of Exclusion 4) | 433 nM | 155 nM | 
4 | CCCGGGAGUCAGGAUAUCUCCGAGGAGUAUCAGAGAGAAGGGACUACUUGAGGAUCACCCAAGUAGGUGUAAAA [Enleteerre] (Eterna round: R97, puzzle: Exclusion 6) | 28.8 nM | 20.2 nM | 
5 | CAUUAGCGAGGAUAUACAUGAGGAUCACCCAUGUGAUCCUAAGGCUGAUGAAGCCUAUGUAGAAGGCGCAAAUU [jl-ex3.4.54 ViennaUCT mod] (Eterna round: R97, puzzle: Exclusion 3) | 107 nM | 42.2 nM | 
6 | CAAAGAUAAGGAUAUUGAAGGUUCGACAUGAGGAUCACCCAUGUUAUGUUGGAAAAGGGACAAGAAGGUAUGAAAC [salish99_ex5_r4_211] (Eterna round: R97, puzzle: Exclusion 5) | 28.2 nM | 35.8 nM | 
7 | UUAGAAAUGUUAGGAUAUUAAUAUUUUUUUAGUAUGAUCUACAUGAGGAUCACCCAUGUUAAUAUUAAGAAGGAACAUUUUAUU [JR_ExcNG2_Sub099] (Eterna round: R96, puzzle: Exclusion NG 2) |  |  | apparent KD of MS2 coat protein [1]: 71.5 nM
8 | GUGUAGCAAGGAUAUACAUGAGGAUCACCCAUGUGAAUAAGAUAGAAUAAGAUAAAGUGUAGAAGGUGCAGUGU [Excluse me!!! 8 - Jieux - Exclusion 3] (puzzle: Exclusion 3) |  |  | apparent KD of MS2 coat protein [2]: 36.6 nM
9 | GAUGUGGGUUUCCGGAGGAACAUGAGGAUCACCCAUGUAGAAGUUGGAGGGAUAACGCUUUUUGCUCGUUACACGUG [JR_SV3TOV1_Sub055] (puzzle: Sensor v3, turn-off variant 1) |  |  | apparent KD of MS2 coat protein [3]: 178 nM; apparent KD of MS2 coat protein [2]: 170 nM; apparent KD of MS2 coat protein [4]: 221 nM
10 | AGCCACAGAGGAUAUACAUACAUCCAGUAGUAAAGAAUACUACAUGAGGAUCACCCAUGUAGAAGGCUGUGGCA [Omei Ex2 BD B13] (Eterna round: R97, puzzle: Exclusion 2) | 308 nM | 86.4 nM | 
11 | CCGUGCACGCUGCGCUCCUACAUGAGGAUCACCCAUGUGGUCCGGUGGCGUGGGUCGCCGGACUUGGCUCGUCUUGU [salish99_S_TOV1_R5_019] (Eterna round: R97, puzzle: Sensor, turn-off variant 1) | 83.1 nM |  | 
12 | AAGACAAAUGUAGGAUAUGCGUGGCGAAGCUAUGCAGAAGGACAUGAGGAUCACCCAUGUCUUAGCGUCUGCGUACAGAUGCUA [JL eng1 1.35 mod 9] (Eterna round: R96, puzzle: Exclusion NG 1) |  |  | apparent KD of MS2 coat protein [1]: 12.1 nM
13 | AGAUGCUCGAGUCGACAUGAGGAUCACCCAUGUACAGUUAAUGAGGAUAUCUGAGACAAAUAGUAGGAGAAGGCGUGAACAUGA [Ex NG3 #11] (Eterna round: R96, puzzle: Exclusion NG 3) | 191 nM | 90.9 nM | apparent KD of MS2 coat protein [1]: 68.6 nM
14 | CUUUUGUGAGGAUAUCAGUAGUAAAUAAAUAAAAUUACUUCUGAGAAGGCACAUGAGGAUCACCCAUGUUCCUC [salish99_ex3_r3_087] (puzzle: Exclusion 4) |  |  | apparent KD of MS2 coat protein [2]: 35.7 nM
15 | CUAAAUCAUGUAGGAUAUGCGUGGCAAAGCUAUGCAGAAGGACAUGAGGAUCACCCAUGUCUUUCCGUCUGAGUACAGACGGGA [Mat - Exclusion NG 1 - Mod of JL - D46] (Eterna round: R96, puzzle: Exclusion NG 1) | 166 nM | 26.6 nM | apparent KD of MS2 coat protein [1]: 21.7 nM
16 | CCGUGCACGCUGCGGUCCUACAUGAGGAUCACCCAUGUGGUCUGGUGGCGUGGGUCGCCGGACUUGGCUCGUCUUGA [salish99_S_TOV1_R5_021] (Eterna round: R97, puzzle: Sensor, turn-off variant 1) | 18.8 nM | 19.2 nM | 
17 | GCUGGGUCAGGAUAUACAAGAUCGAAAGAUCAAAGAUUCGUACAUGAGGAUCACCCAUGUAGAAGGGACUGGGC [ChP 11-04-2015 #8] (puzzle: Exclusion 2) |  |  | apparent KD of MS2 coat protein [2]: 17.2 nM
18 | AAAUAUCAUGUAGGAUAUGGUAGGCGAACCUUACCAGAAGGACAUGAGGAUCACCCAUGUGCUGAGUUGUCCGUAGACAGCUCU [Ex NG1 #4] (Eterna round: R96, puzzle: Exclusion NG 1) | 74.1 nM | 78.7 nM | apparent KD of MS2 coat protein [1]: 63.7 nM
19 | AAUAACAAGUUGAUCCUACACAUGAGGAUCACCCAUGUGCUCGUCUUGUAAAGUACUAUCACGAAAGUGAUAGUACA (Eterna round: R97, puzzle: Sensor, turn-off variant 1) | 50.2 nM | 66 nM | 
20 | CUGAUGUCAGGAUAUCGGUGGCUCACUUGUGUGUGCCAGUUCGAGAAGGGACAUGAGGAUCACCCAUGUUUUUA [Exclusion 4 (Mod2 of #36 by Marzena11)] (Eterna round: R97, puzzle: Exclusion 4) | 486 nM | 75.2 nM | 
21 | AUGUGCACGCUGCGGUCCUACAUGAGGAUCACCCAUGUGGUCUGGUGGCGUGGGUCACCGGACUUGGCUCGUCUUGC [salish99_S_TOV1_R5_058] (Eterna round: R97, puzzle: Sensor, turn-off variant 1) | 21.4 nM | 21.2 nM | 
22 | ACUGGUGCAGGAUAUGCAAUCGUGCUUCGGCACGUAAGGUCACAUGAGGAUCACCCAUGUAGAAGGGCACCAGU [E2/4-D1] (Eterna round: R97, puzzle: Exclusion 2) | 33.2 nM | 12.6 nM | 
23 | AUGCGACAUGAGGAUCACCCAUGUGAGGAUAUGCGAAUGCAGACUUCGGUUUGAUAGAGCAGAAGGCGCAGGUA [EX1 #15] (Eterna round: R97, puzzle: Exclusion 1) | 58.5 nM | 29.4 nM | 
24 | CGGUGCUGAGGAUAUACAUGAGGAUCACCCAUGUGUUAUUGAUAGAAAACUGGCAGAUGUAGAAGGCGGUACUG [Mat - Exclusion 3 - Mod of JL D99] (puzzle: Exclusion 3) |  |  | apparent KD of MS2 coat protein [3]: 80.5 nM; apparent KD of MS2 coat protein [2]: 25.4 nM; apparent KD of MS2 coat protein [4]: 24.9 nM
25 | ACAUGAGGAUCACCCAUGUGAAAAGAAUGGCUGACACAGAGAUAGGAUAUGUGUGCAUAUCUAACACAGAAGGGUCAUGACUGG [Deportation 80 - Jieux - Exclusion NG 3] (Eterna round: R96, puzzle: Exclusion NG 3) | 41.6 nM | 40.1 nM | apparent KD of MS2 coat protein [1]: 34.2 nM
26 | UAACAGCGAGGAUAUACAUGAGGAUCACCCAUGUACGGGUCCGGGUUUUCGUCCAAAAGUAGAAGGCGCAAUAA [Laongeedte] (puzzle: Exclusion 3) |  |  | apparent KD of MS2 coat protein [3]: 177 nM; apparent KD of MS2 coat protein [2]: 38.4 nM; apparent KD of MS2 coat protein [4]: 41.4 nM
